The source of these data is PMC9186069.

Assay [1] addresses FbpA-C (Borrelia miyamotoi strain FR64b) (UniProt W5SFZ1). Kind of assay: SPR; FbpA-C, FbpB-C or FbpA DA-C immobilised by amine coupling; C1r-CCP2-SP injected, twofold dilution series 0-100 nM, multi-cycle; Biacore T200, 25°C, 30 μL/min; kinetic fits.
Assay [2] has as its target serum C1r (human (endogenous in normal human serum)).
Assay [3] addresses MBP-FbpA-N (Borrelia miyamotoi strain FR64b). The experiment in a line: SPR; MBP-Fbp-N fusion proteins immobilised by amine coupling on CMD200 chips; human plasma fibronectin injected, twofold dilution series up to 500 nM, multi-cycle; Biacore T200, 25°C, 30 μL/min, HBS-T; steady-state affinity fits.

Consider C1r-CCP2-SP (domain or fragment), for which, in assay [1], the Kd amounted to 0.0009 µM, the koff is 0.00031 s⁻¹ and the kon is 330000 M⁻¹ s⁻¹.
Take “FbpA-C (from UniProt W5SFZ1 222-371) (domain or fragment)”: in assay [2], the IC50 of inhibition of classical pathway complement activation (ELISA-based assay, C4b deposition, normal human serum) stood at 0.023 µM and the IC50 of inhibition of classical pathway hemolysis (pre-sensitized sheep erythrocytes, 2% normal human serum) worked out at 0.22 µM.
For the substance “FbpB-C (from UniProt A0A0U2RP97 264-432) (domain or fragment)”, in assay [2], the IC50 of inhibition of classical pathway complement activation (ELISA-based assay, C4b deposition, normal human serum) is 1.9 µM.
Substance “human fibronectin (from UniProt P02751) (natural protein)” returned a Kd in assay [3] of 0.17 µM. In other words, the sub-micromolar range.
